# From patent US20210396761A1 (AICURIS, published 2021)
# Non-standard residues stand in square brackets, D forms with d. *: point of attachment. Bio = O=C1N[C@H]2[C@H](CS[C@H]2CCCCC(=O)*)N1; Aoa = not defined here
# B1: His-tagged BFRF1 (EBV groove protein, soluble recombinant) (other)
# chain: MASPEERLLDELNNVIVSFLCDSGSLEVERCSGAHVFSRGSSQPLCTVKLRHGQIYHLEFVYKFLAFKLKNCNYPSSPVFVISNNGLATTLRCFLHEPSGLRSGQSGPCLGLSTDVDLPKNSIIMLGQDDFIKFKSPLVFPAELDLLKSMVVCRAYITEHRTTMQFLVFQAANAQKASRVMDMISDMSQQLS
# notes: also called His-tagged groove protein
# B2: His-tagged pUL50 (HCMV groove protein, soluble recombinant) (other)
# chain: MEMNKVLHQDLVQATRRILKLGPSELRVTDAGLICKNPNYSVCDAMLKTDTVYCVEYLLSYWESRTDHVPCFIFKNTGCAVSLCCFVRAPVKLVSPARHVGEFNVLKVNESLIVTLKDIEEIKPSAYGVLTKCVVRKSNSASVFNIELIAFGPENEGEYENLLRELYAKKAASTS
# notes: as for B1
# B3: EBV BFRF1, C-terminally fused to the HA epitope (pcDNA-BFRF1-HA, pHM4697) (other)
# chain: MASPEERLLDELNNVIVSFLCDSGSLEVERCSGAHVFSRGSSQPLCTVKLRHGQIYHLEFVYKFLAFKLKNCNYPSSPVFVISNNGLATTLRCFLHEPSGLRSGQSGPCLGLSTDVDLPKNSIIMLGQDDFIKFKSPLVFPAELDLLKSMVVCRAYITEHRTTMQFLVFQAANAQKASRVMDMISDMSQQLSRSGQVEDTGARVTGGGGPRPGVTHSGCLGDSHVRGRGGWDLDNFSEAETEDEASYAPWRDKDSWSESEAAPWKKELVRHPIRRHRTRETRRMRGSHSRVEHVPPETRETVVGGAWRYSWRATPYLARVLAVTAVALLLMFLRWT
# notes: also called EBC BFRF1-HA; HA-tagged BFRF1
# B4: EBV BFLF2, C-terminally fused to the Flag epitope (pcDNA-BFLF2-Flag, pHM4698) (other)
# chain: MAPVTPDAVNARQQRPADPALRRLMHPHHRNYTASKASAHSVKSVSRCGKSRSELGRMERVGSVARSICSRHTRHGVDRSHFSLRDFFRGISANFELGKDFLREMNTPIHVSEAVFLPLSLCTLSPGRCLRLSPFGHSLTLGSHCEICINRSQVHVPQEFSSTQLSFFNNVHKIIPNKTFYVSLLSSSPSAVKAGLSQPSLLYAYLVTGHFCGTICPIFSTNGKGRLIMHLLLQGTSLHIPETCLKLLCENIGPTYELAVDLVGDAFCIKVSPRDTVYEKAVNVDEDAIYEAIKDLECGDELRLQIINYTQLILENKQDYKDDDDK
# notes: also called Flag-tagged BFLF2
# B5: pUL53 (50-292) (other)
# chain: PSPADARPRLTLHDLHDIFREHPELELKYLNMMKMAITGKESICLPFNFHSHRQHTCLDISPYGNEQVSRIACTSCEDNRILPTASDAMVAFINQTSNIMKNRNFYYGFCKSSELLKLSTNQPPIFQIYYLLHAANHDIVPFMHAEDGRLHMHVIFENPDVHIPCDCITQMLTAAREDYSVTLNIVRDHVVISVLCHAVSASSVKIDVTILQRKIDEMDIPNDVSESFERYKELIQELCQSSG
# B6: VZV Orf24, C-terminally fused to the HA epitope (pcDNA-Orf24-HA, pHM4695) (other)
# chain: MSRRTYVRSERRRGCGDNLLQRIRLVVPSALQCCDGDLPIFDPQRPPARCVFQFNGEDNVSEAFPVEYIMRLMANWAQVDCDPYIKIQNTGVSVLFQGFFFRPTNAPVAEVSIDSNNVILSSTLSTGINLSALESIKRGGGIDRRPLQALMWVNCFVRMPYVQLSFRFMGPEDPSRTIKLMARATDAYMYKETGNNLDEYIRWRPSFRSPPENGSPNTSVQMQSDIKPALPDTQTTRVWKLALPVANVTYALFIVIVLVVVLGAVLFWK
# B7: VZV Orf27, C-terminally fused to the Flag epitope (pcDNA-Orf27-Flag, pHM4696) (other)
# chain: MHLKPTRFFHANQPPMPHSYEMEDLCFDDMQYRWSPSNTPYRSMSRRYKSVSRSGPSMRVRSRTPCRRQTIRGKLMSKERSVYRHYFNYIARSPPEELATVRGLIVPIIKTTPVTLPFNLGQTVADNCLSLSGMGYHLGLGGYCPTCTASGEPRLCRTDRAALILAYVQQLNNIYEYRVFLASILALSDRANMQAASAEPLLSSVLAQPELFFMYHIMREGGMRDIRVLFYRDGDAGGFMMYVIFPGKSVHLHYRLIDHIQAACRGYKIVAHVWQTTFLLSVCRNPEQQTETVVPSIGTSDVYCKMCDLNFDGELLLEYKRLYALFDDFVPPRDYKDDDDK
# B8: HCMV pUL53, C-terminally fused to the Flag epitope (pcDNA-UL53-Flag, pHM2590) (other)
# chain: MSSVSGVRTPRERRSALRSLLRKRRQRELASKVASTVNGATSANNHGEPPSPADARPRLTLHDLHDIFREHPELELKYLNMMKMAITGKESICLPFNFHSHRQHTCLDISPYGNEQVSRIACTSCEDNRILPTASDAMVAFINQTSNIMKNRNFYYGFCKSSELLKLSTNQPPIFQIYYLLHAANHDIVPFMHAEDGRLHMHVIFENPDVHIPCDCITQMLTAAREDYSVTLNIVRDHVVISVLCHAVSASSVKIDVTILQRKIDEMDIPNDVSESFERYKELIQELCQSSGNNLYEEATSSYAIRSPLTASPLHVVSTNGCGPSSSSQSTPPHLHPPSQATQPHHYSHHQSQSQQHHHRPQSPPPPLFLNSIRAPDYKDDDDK
# notes: also called pUL53-Flag; Flag-tagged pUL53
# How the values were obtained:
# [1] = biological target: T1, BFLF2 (EBV hook protein, soluble recombinant) (Epstein-Barr virus (EBV), UniProt P0CK47 78-318); assay: direct ELISA, BFLF2 coated, His-tagged BFRF1 in serial dilutions, anti-His-HRP
# T1 sequence: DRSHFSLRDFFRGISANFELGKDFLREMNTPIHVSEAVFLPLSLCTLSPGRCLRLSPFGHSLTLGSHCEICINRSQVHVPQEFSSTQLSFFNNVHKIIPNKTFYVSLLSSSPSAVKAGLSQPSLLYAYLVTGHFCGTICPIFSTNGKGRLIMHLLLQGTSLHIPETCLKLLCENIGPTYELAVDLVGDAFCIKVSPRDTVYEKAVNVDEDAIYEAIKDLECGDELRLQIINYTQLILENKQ
# [2] = biological target: T2, pUL53 (HCMV hook protein, soluble recombinant) (human cytomegalovirus (HCMV), UniProt P16794 50-292); assay: direct ELISA, pUL53 coated, His-tagged pUL50 in serial dilutions, anti-His-HRP
# T2 sequence: B5 chain
# [3] = biological target: T2, pUL53 (HCMV hook protein, soluble …); assay: direct ELISA, comparison of EC50 values
# [4] = biological target: B8; assay: coimmunoprecipitation, transiently transfected 293T cells
# [5] = biological target: B3; assay: as above
# [6] = biological target: T3, HCMV pUL50, C-terminally fused to the HA epitope (pcDNA-UL50-HA, pHM2589) (human cytomegalovirus (HCMV) strain …, UniProt P16791 1-397); assay: as above
# T3 sequence: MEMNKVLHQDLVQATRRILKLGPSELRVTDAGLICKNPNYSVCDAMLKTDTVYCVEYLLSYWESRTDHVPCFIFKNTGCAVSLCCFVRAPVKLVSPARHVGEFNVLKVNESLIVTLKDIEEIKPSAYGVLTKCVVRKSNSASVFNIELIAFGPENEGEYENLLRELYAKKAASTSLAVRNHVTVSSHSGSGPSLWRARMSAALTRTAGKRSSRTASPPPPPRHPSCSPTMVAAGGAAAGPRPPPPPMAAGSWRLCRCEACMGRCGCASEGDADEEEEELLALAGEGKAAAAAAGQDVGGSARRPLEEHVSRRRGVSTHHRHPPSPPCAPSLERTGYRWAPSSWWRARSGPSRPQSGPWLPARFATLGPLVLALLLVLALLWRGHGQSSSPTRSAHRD
# [7] = biological target: the molecule itself; assay: analytical size exclusion chromatography, self-association
# [8] = biological target: B7; assay: coimmunoprecipitation, transiently transfected 293T cells
# [9] = biological target: T4, His-tagged pUL50 (HCMV groove protein, soluble recombinant) (human cytomegalovirus (HCMV)), P16791; assay: competitive ELISA, inhibition of His-tagged pUL50 binding to coated pUL53
# T4 chain: B2 chain
binder,measurement,setting,value
B1,EC50,[1],122 nM
B2,EC50,[2],6.2 nM
same,fold stronger than the BFRF1-BFLF2 interaction of EBV,[3],~20 fold
B3,binding result,[4],no binding
B4,binding result,[5],binds
same,binding result,[6],no binding
B5,binding result,[7],binds
B6,binding result,[8],binds
same,binding result,[4],no binding
B7,binding result,[6],no binding
LTLHDLHDIFREHPELELKYLNMMKMAITK (modifications not checked) [HCMV hook peptide (Ac-pUL53 59-87-Aoa-Lys(Bio)-NH2)],IC50,[9],114 nM
Ac-SHFSLRDFFRGISANFELGKDFLREMNTP[Aoa]K(Bio)-NH2 (reading uncertain) [EBV hook peptide (Ac-BFLF2 80-108-Aoa-Lys(Bio)-NH2)],IC50,[9],2600 nM
same,fold lower inhibitory activity than the HCMV hook peptide,[9],22 fold
B8,binding result,[6],binds
